From patent publication US5635384 (DowElanco, dated 1997)

Biological target: T1, maize αβ RIP β fragment (maize)
T1 chain: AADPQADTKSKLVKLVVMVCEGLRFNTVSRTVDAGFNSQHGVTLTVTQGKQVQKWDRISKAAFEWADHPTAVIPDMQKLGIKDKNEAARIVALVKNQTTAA
Experiment: reverse phase and ion exchange chromatography

B1: maize αβ RIP α fragment (other)
chain: KRIVPKFTEIFPVEDANYPYSAFIASVRKDVIKHCTDHKGIFQPVLPPEKKVPELWFYTELKTRTSSITLAIRMDNLYLVGFRTPGGVWWEFGKDGDTHLLGDNPRWLGFGGRYQDLIGNKGLETVTMGRAEMTRAVNDLAKKKK
binding result: binds
